Reference: patent US20210032343A1

Columns and labels:
HER2 (human) = HER2 (human) (UniProt P04626); experiment: ELISA
PD-1 (human) = PD-1 (human) (UniProt Q15116); experiment: competition ELISA; blocking PD-1/PD-L2
Sequence of PD-1 (human) (Q15116 25-167): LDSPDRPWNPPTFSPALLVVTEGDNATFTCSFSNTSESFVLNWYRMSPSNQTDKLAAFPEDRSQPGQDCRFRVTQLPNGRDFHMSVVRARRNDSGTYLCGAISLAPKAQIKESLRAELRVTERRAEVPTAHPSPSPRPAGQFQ

## HER2
HER2 (human)
  EC50: 0.12 nM
PD-1 (human)
  IC50: > 20 nM
